Consider two substances from PMC4024195.

Test [1] has as its target glucokinase-YN155 (UniProt P17712). The experiment in a line: BiFC assay. To be noted: COS1 cells, 25 mM glucose, read off a plot.
The target is the same in test [2]. As to the kind of experiment: BiFC assay. The conditions noted are these: COS1 cells, 25 mM glucose, without dibutyryl cAMP; parent: est. 36; read off a plot.

UniProt P17712, sequence (P17712 whole entry): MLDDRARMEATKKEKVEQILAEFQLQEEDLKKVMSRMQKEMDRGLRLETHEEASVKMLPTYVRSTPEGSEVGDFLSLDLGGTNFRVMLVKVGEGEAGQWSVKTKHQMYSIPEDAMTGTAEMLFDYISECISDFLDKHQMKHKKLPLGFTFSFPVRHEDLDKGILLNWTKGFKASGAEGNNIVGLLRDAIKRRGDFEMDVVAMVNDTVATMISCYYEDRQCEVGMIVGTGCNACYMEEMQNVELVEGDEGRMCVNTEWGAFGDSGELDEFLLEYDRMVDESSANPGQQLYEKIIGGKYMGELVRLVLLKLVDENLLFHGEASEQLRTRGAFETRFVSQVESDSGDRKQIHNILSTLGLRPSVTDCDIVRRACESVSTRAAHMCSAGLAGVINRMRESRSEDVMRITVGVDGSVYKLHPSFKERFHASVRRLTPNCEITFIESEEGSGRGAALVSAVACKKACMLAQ

For the substance “wild-type PFK2/FBPase2-YC155 (from UniProt P07953) S32A”, the response (% transfected cells) in the test with glucokinase-YN155 [1] (50 μM dibutyryl cAMP for 1 h, parent: est. 28) was 33; with glucokinase-YN155 [1] (without dibutyryl cAMP, parent: est. 36) it was 39; with glucokinase-YN155 [2], 39.

For the substance “wild-type PFK2/FBPase2-YC155 (from UniProt P07953) S32D”, the response (% transfected cells) with glucokinase-YN155 [2] is 39.
